Experimental data published in publication PMC3278277.

Tests used:
Conditions in all cases: glycan gained; control: wild type
[1] = Uptake index: recipient lysate activity / input medium activity
[2] = Anti-V5 blot of Ni-NTA purified C-terminal fragment, COS-1
[3] = HNG colorimetric assay, stable H4 lysates
[4] = GALC blot and activity in H4 conditioned medium

B1: galactocerebrosidase (GALC): D528N (protein)
parent chain: MLGKSHGRATHGPLPLADLGIHLPCVKVLHQVTPEEKPAATSRLLVNYPEPYRSQILDYLFKPNFGASLHILKVEIGGDGQTTDGTEPSHMHYALDENYFRGYEWWLMKEAKKRNPNITLIGLPWSFPGWLGKGFDWPYVNLQLTAYYVVTWIVGAKRYHDLDIDYIGIWNERSYNANYIKILRKMLNYQGLQRVKIIASDNLWESISASMLLDAELFKVVDVIGAHYPGTHSAKDAKLTGKKLWSSEDFSTLNSDMGAGCWGRILNQNYINGYMTSTIAWNLVASYYEQLPYGRCGLMTAQEPWSGHYVVESPVWVSAHTTQFTQPGWYYLKTVGHLEKGGSYVALTDGLGNLTIIIETMSHKHSKCIRPFLPYFNVSQQFATFVLKGSFSEIPELQVWYTKLGKTSERFLFKQLDSLWLLDSDGSFTLSLHEDELFTLTTLTTGRKGSYPLPPKSQPFPSTYKDDFNVDYPFFSEAPNFADQTGVFEYFTNIEDPGEHHFTLRQVLNQRPITWAADASNTISIIGDYNWTNLTIKCDVYIETPDTGGVFIAGRVNKGGILIRSARGIFFWIFANGSYRVTGDLAGWIIYALGRVEVTAKKWYTLTLTIKGHFTSGMLNDKSLWTDIPVNFPKNGWAAIGTHSFEFAQFDNFLVEATR
other: cellular uptake, other: uptake index [1]: decreases | other: proteolytic processing [2]: no change | enzymatic_activity, percent_of_wt [3]: decreases | expression_or_secretion [4]: decreases
